Reference: patent US7235626B1, “Structured peptide scaffold for displaying turn libraries on phage” (Genentech, Inc., priority 1999, dated 2007)
Positions of bridges follow the written chain, without caps; N, C: chain ends. No end group written: not given here.

Experiments:
[1] = 1H NMR analysis of hairpin structure in solution; format: physicochemical; details: for structure in solution: NMR, ~2 mM peptide, pH 3.5
Protocol: NMR Spectroscopy. […] All spectra were acquired on a Bruker DRX-500 or a Varian Unity-400 spectrometer at 15° C. 2QF-COSY, TOCSY and ROESY spectra were acquired as described (Cavanagh et al. (1995) Protein NMR Spectroscopy, Principles and Practices (Academic Press, San Diego) with gradient coherence selection (van Zijl et al. (1995) J. Magn. Reson. 113A:265-270), or excitation sculpting (Hwang & Shaka, (1995) J. Magn. Reson. 112A, 275-279.) for water suppression. Proton resonances were assigned by standard methods (Wüthrich (1986) NMR of Proteins and Nucleic Acids (John Wiley and Sons, New York). 3JH^N-H^α were obtained by fitting Lorentzian lines to the antiphase doublets of HN—H^α peaks in 2QF-COSY spectra processed to high digital resolution in F2. ^3JH^N-H^α were extracted from COSY-35 spectra acquired on D2O solutions of the peptides. Distance and dihedral angle restraints were generated as described (Skelton et al. (1994) Biochemistry 33:13581-13592). 100 initial structures were calculated using the hybrid distance geometry/simulated annealing program DGII (Havel et al. (1991) Prog. Biophys. Mol. Biol. 56:43-78.); 80 of these were further refined by restrained molecular dynamics using the AMBER all-atom forcefield implemented in DISCOVER as described previously (Skelton et al. (1994) Biochemistry 33:13581-13592.). […]
Structure Calculation. Structures were calculated with 78 ROE-derived distance restraints (10 medium- and 28 long-range restraints; upper bounds of 5.4, 4.3, 3.4 or 3.0 Å) and 12 dihedral angle restraints. […]
NMR Analysis. […] Spectra were acquired and analyzed as described above. The structure of cd2 was calculated from 84 (including 13 medium- and 23 long-range) ROE-derived distance restraints and 13 dihedral angle restraints. […]
Analysis of Sidechain Rotamers. […] Given the large number of backbone-backbone distance and Φ dihedral angle restraints, the structures calculated for bhpw and cd2 do accurately represent the solution conformation of these peptides, except in the over determination of some side chain orientations.

[2] = Cysteine effective concentration (Ceff) measurement, thiol-disulfide equilibrium relative to glutathione; format: physicochemical
Protocol: Cysteine Effective Concentration Measurements. Glutathione stock solutions were prepared by mixing 3 volumes of 0.2 M reduced glutathione (GSH) with 1 volume of 0.1 M oxidized glutatione (GSSG). Aliquots were stored at −80° C. and were stable for several months; use of a single batch eliminated any error in ΔΔG values that might arise from variability of total glutathione concentration. Thiol-disulfide equilibria were established by mixing 50 μL peptide stock (approximately 3 mM in water) with 50 μL glutathione stock, deoxygenating the acidic solution with vacuum/argon cycles from a Firestone valve, then adding 300 μL of deoxygenated buffer by syringe (0.2 M tris, pH 8.0; 1 mM EDTA; 67 mM tris base to titrate glutathione), followed by further deoxygenation of the mixture. The final pH of all reaction mixtures was 8.10±0.05. Solutions were stirred under argon and maintained at 20° C. in a water bath. After 1.5 h, successive aliquots (100 μL) were removed with a gastight syringe, immediately quenched by discharge into 400 μL of 3.1 mM HCl, and analyzed by HPLC with a minimum of delay. Ceff values were calculated from the molar ratios of the reduced and oxidized forms of peptide and glutathione (peak area ratios corrected for absorbance differences measured by HPLC), assuming 0.025 M total glutathione monomer (i.e., neglecting the minor amount (<1%) of glutathione present in mixed disulfides with peptide): Ceff=([peptideox]/[peptidered])×([GSH]^2/[GSSG]) [GSH]+2[GSSG]=0.025 M [GSSG]=0.025 M/{2+3.26 (GSH peak area/GSSG peak area)} [peptideox]/[peptidered]=equilibrium peak area ratio/absorbance ratio
Two or three samples from each reaction mixture were analyzed; there were no shifts in populations with time, and calculated Ceff values typically varied by less than 5% (equivalent to 30 cal/mol uncertainty in ΔΔG).

[3] = Circular dichroism spectra of peptides; format: physicochemical; details: 10° C.; 20 μM peptide in 20 mM potassium phosphate, pH 7.0
Protocol: Terminal serine and lysine residues were added to improve the solubility of some variants of the CD4 peptide, which are otherwise uncharged. A similar modification was made to bhpW as a control. Non-turn residues that differ between bhpW and the CD4 loop are underlined. Coelution of reduced and oxidized peptides prevented measurement of Ceff for the T2, N3 variant of the CD4 peptide. Circular dichroism spectra were acquired at 10° C. with an Aviv Instruments, Inc. Model 202 spectrophotometer; peptide concentrations were 20 μM in 20 mM potassium phosphate, pH 7.0.

[4] = tested on: CD4; details: normal CD4 interactions and CD4-mediated cell entry by HIV; cited from earlier work

Row | Substance | structure in solution [1] | [θ]215 [3] | other results
1 | Ac-CGNQGSFLTC-NH2 (disulfide 1-10 (inferred)) [cd1, disulfide-constrained peptide based on native CD4 hairpin residues 38-45] | essentially unstructured |  | 
2 | Ac-CTWEGNKLTC-NH2 (disulfide 1-10 (inferred)) [bhpW, tryptophan analog of the model β-hairpin peptide bhp] |  | −19,800 deg cm^2 dmol^−1 | Ceff ([2]; Table 1, bhp peptides varied at residue 3, pH 8.10, 20° C.): 210 ± 4 mM; Ceff ([2]; Table 2, bhpW and CD4 C′-C″ loop peptides, pH 8.10, 20° C.): 210 ± 4 mM; hairpin conformation population ([1]; 15° C., estimate): > 80%
3 | Ac-CTWQGSFLTC-NH2 (disulfide 1-10 (inferred)) [cd2, cd1 with substitutions G2T and N3W] | well-ordered | −15,800 deg cm^2 dmol^−1 | 
4 | FCYICEVEDQCY (also: cyclic, type and places not given here) [cyclic peptide from loops of domain 1 of human CD4] |  |  | antagonism of CD4 interactions [4]: antagonize
